Measurements taken from paper PMC6003227 (Molecular Biology of the Cell, 2018).

Biological target: T1, MBP-Cdc12(1–765-6A) (S. pombe, UniProt Q10059 1-765, T20A | T22A | S64A | T95A | T151A | S463A)
T1 sequence (looked up): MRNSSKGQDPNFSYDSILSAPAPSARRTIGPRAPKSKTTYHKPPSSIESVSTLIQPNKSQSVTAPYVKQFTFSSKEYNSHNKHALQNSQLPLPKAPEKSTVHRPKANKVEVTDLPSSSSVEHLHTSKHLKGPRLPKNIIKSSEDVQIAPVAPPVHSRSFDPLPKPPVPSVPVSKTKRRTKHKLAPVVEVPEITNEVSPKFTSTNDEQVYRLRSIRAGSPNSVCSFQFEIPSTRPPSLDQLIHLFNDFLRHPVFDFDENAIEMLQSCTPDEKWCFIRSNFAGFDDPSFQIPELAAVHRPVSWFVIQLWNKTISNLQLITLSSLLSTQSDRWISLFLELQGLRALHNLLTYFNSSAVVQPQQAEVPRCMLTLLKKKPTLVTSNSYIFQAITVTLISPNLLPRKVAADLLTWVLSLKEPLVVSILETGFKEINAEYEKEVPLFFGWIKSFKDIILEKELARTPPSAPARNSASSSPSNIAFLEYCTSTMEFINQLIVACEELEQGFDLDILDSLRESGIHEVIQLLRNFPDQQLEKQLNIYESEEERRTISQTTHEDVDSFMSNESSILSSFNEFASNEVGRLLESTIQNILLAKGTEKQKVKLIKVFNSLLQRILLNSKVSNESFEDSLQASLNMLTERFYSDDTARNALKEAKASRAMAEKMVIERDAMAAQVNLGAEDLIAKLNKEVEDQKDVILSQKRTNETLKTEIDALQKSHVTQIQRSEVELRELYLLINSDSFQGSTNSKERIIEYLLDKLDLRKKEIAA
Assay: pull-down

binding result: binds
B1: Cdc15 F-BAR(19–312) (domain or fragment, S. pombe, UniProt Q09822 19-312, looked up)
chain: SVKFRDNFWGSEDAGMDALMSRTKSSLSVLESIDEFYAKRASIEREYASKLQELAASSADIPEVGSTLNNILSMRTETGSMAKAHEEVSQQINTELRNKIREYIDQTEQQKVVAANAIEELYQKKTALEIDLSEKKDAYEYSCNKLNSYMRQTKKMTGRELDKYNLKIRQAALAVKKMDAEYRETNELLLTVTREWIDRWTEVCDAFQHIEEYRLEFLKTNMWAYANIISTACVKDDESCEKIRLTLENTNIDEDITQMIQNEGTGTTIPPLPEFNDYFKENGLNYDIDQLISK
